Data taken from patent US20180258172A1.

Key:
[1] = biological target: human zB7H6 (full-length, on cells) (human) (UniProt Q68D85); test: competition flow cytometry, zB7H6-transfected P815 cells, 100-fold mass excess of isotype control antibody against NKp30/mFc2-biotin (no competition)
[2] = biological target: human zB7H6 (full-length, on cells) (human) (UniProt Q68D85); test: competition flow cytometry, zB7H6-transfected P815 cells, 100-fold mass excess of isotype control antibody (no competition)

Sequence of human zB7H6 (full-length, on cells) (human) (Q68D85 25-454): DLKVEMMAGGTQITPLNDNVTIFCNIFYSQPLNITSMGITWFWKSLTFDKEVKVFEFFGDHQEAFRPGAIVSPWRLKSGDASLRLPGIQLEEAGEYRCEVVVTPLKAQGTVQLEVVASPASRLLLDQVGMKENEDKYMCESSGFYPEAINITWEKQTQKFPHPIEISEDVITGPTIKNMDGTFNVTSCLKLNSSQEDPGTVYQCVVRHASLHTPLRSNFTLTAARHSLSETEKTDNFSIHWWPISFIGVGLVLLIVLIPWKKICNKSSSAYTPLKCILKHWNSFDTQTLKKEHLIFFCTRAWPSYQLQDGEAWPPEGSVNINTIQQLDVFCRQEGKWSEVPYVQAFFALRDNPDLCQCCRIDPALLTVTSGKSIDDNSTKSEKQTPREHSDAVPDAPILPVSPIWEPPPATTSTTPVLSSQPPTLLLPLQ

isotype control antibody
MFI of NKp30/mFc2-biotin in the presence of the competitor [1]: 775 | MFI of anti-zB7H6-A647 in the presence of the competitor [2]: 500
